The record followed here is article PMC11407402.

Values joined by “and” are separate entries in the source; they are usually repeats but may differ in a detail not shown here. Identical values can stand only once.

This experiment addresses non-glycosylated recombinant FcγRIIIa, 158 V allele, immobilised in the TSKgel FcγR-IIIA-NPR column. Put plainly: affinity HPLC on immobilised receptor.

In the case of “anti-CD20 antibody (rituximab V regions), wild-type human IgG1”, the elution time was 14.4 min and 16.2 min and 17.9 min; the mean elution time was found to be 15.5 min.
